The source of these data is patent publication US20160272683A1 (Novo Nordisk, published 2016).

The target of the experiment is T1, human amylin receptor (human calcitonin receptor + human RAMP3) (human) (UniProt P30988).
T1 sequence (looked up) 1: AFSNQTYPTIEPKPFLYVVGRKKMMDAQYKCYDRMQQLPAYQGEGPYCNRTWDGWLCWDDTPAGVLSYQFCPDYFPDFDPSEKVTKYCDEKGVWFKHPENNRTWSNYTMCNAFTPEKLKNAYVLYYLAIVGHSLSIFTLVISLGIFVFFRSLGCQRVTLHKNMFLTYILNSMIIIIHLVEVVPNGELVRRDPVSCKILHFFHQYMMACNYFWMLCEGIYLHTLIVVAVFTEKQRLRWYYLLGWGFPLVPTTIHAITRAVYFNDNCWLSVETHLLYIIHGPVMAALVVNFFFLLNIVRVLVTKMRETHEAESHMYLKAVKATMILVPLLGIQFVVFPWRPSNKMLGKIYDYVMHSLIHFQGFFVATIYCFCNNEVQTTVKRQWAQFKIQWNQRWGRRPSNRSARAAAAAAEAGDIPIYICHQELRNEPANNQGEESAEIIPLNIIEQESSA
T1 sequence (looked up) 2: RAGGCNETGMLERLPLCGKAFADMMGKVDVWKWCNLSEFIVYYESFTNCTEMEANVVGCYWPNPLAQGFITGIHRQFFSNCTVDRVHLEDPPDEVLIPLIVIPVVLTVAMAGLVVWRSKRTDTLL
In words: whole-cell competition vs 125I-rat amylin (Assay Va).

Numbered stars: 1 amine (or outer) side, 2 acyl side, 3 side chain; on linkers, the order of the positions; unused ones are H or OH. * marks the point of attachment. C20 diacid = O=C(O)CCCCCCCCCCCCCCCCCCC(=O)*; C18 diacid = O=C(O)CCCCCCCCCCCCCCCCC(=O)*; γGlu = O=C(O)[C@H](CCC(=O)[*:2])N[*:1]; C14 diacid = O=C(O)CCCCCCCCCCCCC(=O)*

B1: [N-terminal(C18 diacid), 9V, 10I]mimylin (peptide)
peptide: {C18 diacid}-EASELSTAVIGRLSAELHELATLPRTETGPESP-NH2
SMILES: CC[C@H](C)[C@H](NC(=O)[C@@H](NC(=O)[C@H](C)NC(=O)[C@@H](NC(=O)[C@H](CO)NC(=O)[C@H](CC(C)C)NC(=O)[C@H](CCC(=O)O)NC(=O)[C@H](CO)NC(=O)[C@H](C)NC(=O)[C@H](CCC(=O)O)NC(=O)CCCCCCCCCCCCCCCCC(=O)O)[C@@H](C)O)C(C)C)C(=O)NCC(=O)N[C@@H](CCCNC(=N)N)C(=O)N[C@@H](CC(C)C)C(=O)N[C@@H](CO)C(=O)N[C@@H](C)C(=O)N[C@@H](CCC(=O)O)C(=O)N[C@@H](CC(C)C)C(=O)N[C@@H](Cc1c[nH]cn1)C(=O)N[C@@H](CCC(=O)O)C(=O)N[C@@H](CC(C)C)C(=O)N[C@@H](C)C(=O)N[C@H](C(=O)N[C@@H](CC(C)C)C(=O)N1CCC[C@H]1C(=O)N[C@@H](CCCNC(=N)N)C(=O)N[C@H](C(=O)N[C@@H](CCC(=O)O)C(=O)N[C@H](C(=O)NCC(=O)N1CCC[C@H]1C(=O)N[C@@H](CCC(=O)O)C(=O)N[C@@H](CO)C(=O)N1CCC[C@H]1C(N)=O)[C@@H](C)O)[C@@H](C)O)[C@@H](C)O
With B1, the IC50 (commonly the midpoint of a concentration-inhibition curve) came out at 0.891 nM.

B2: [N-terminal(C18 diacid), 6H]mimylin (peptide)
peptide: {C18 diacid}-EASELHTAALGRLSAELHELATLPRTETGPESP-NH2
SMILES: CC(C)C[C@H](NC(=O)[C@H](C)NC(=O)[C@H](C)NC(=O)[C@@H](NC(=O)[C@H](Cc1c[nH]cn1)NC(=O)[C@H](CC(C)C)NC(=O)[C@H](CCC(=O)O)NC(=O)[C@H](CO)NC(=O)[C@H](C)NC(=O)[C@H](CCC(=O)O)NC(=O)CCCCCCCCCCCCCCCCC(=O)O)[C@@H](C)O)C(=O)NCC(=O)N[C@@H](CCCNC(=N)N)C(=O)N[C@@H](CC(C)C)C(=O)N[C@@H](CO)C(=O)N[C@@H](C)C(=O)N[C@@H](CCC(=O)O)C(=O)N[C@@H](CC(C)C)C(=O)N[C@@H](Cc1c[nH]cn1)C(=O)N[C@@H](CCC(=O)O)C(=O)N[C@@H](CC(C)C)C(=O)N[C@@H](C)C(=O)N[C@H](C(=O)N[C@@H](CC(C)C)C(=O)N1CCC[C@H]1C(=O)N[C@@H](CCCNC(=N)N)C(=O)N[C@H](C(=O)N[C@@H](CCC(=O)O)C(=O)N[C@H](C(=O)NCC(=O)N1CCC[C@H]1C(=O)N[C@@H](CCC(=O)O)C(=O)N[C@@H](CO)C(=O)N1CCC[C@H]1C(N)=O)[C@@H](C)O)[C@@H](C)O)[C@@H](C)O
On to B2, for which the IC50 worked out at 1.31 nM.

B3: [N-terminal(C18 diacid), 5H]mimylin (peptide)
peptide: {C18 diacid}-EASEHSTAALGRLSAELHELATLPRTETGPESP-NH2
SMILES: CC(C)C[C@H](NC(=O)[C@H](C)NC(=O)[C@H](C)NC(=O)[C@@H](NC(=O)[C@H](CO)NC(=O)[C@H](Cc1c[nH]cn1)NC(=O)[C@H](CCC(=O)O)NC(=O)[C@H](CO)NC(=O)[C@H](C)NC(=O)[C@H](CCC(=O)O)NC(=O)CCCCCCCCCCCCCCCCC(=O)O)[C@@H](C)O)C(=O)NCC(=O)N[C@@H](CCCNC(=N)N)C(=O)N[C@@H](CC(C)C)C(=O)N[C@@H](CO)C(=O)N[C@@H](C)C(=O)N[C@@H](CCC(=O)O)C(=O)N[C@@H](CC(C)C)C(=O)N[C@@H](Cc1c[nH]cn1)C(=O)N[C@@H](CCC(=O)O)C(=O)N[C@@H](CC(C)C)C(=O)N[C@@H](C)C(=O)N[C@H](C(=O)N[C@@H](CC(C)C)C(=O)N1CCC[C@H]1C(=O)N[C@@H](CCCNC(=N)N)C(=O)N[C@H](C(=O)N[C@@H](CCC(=O)O)C(=O)N[C@H](C(=O)NCC(=O)N1CCC[C@H]1C(=O)N[C@@H](CCC(=O)O)C(=O)N[C@@H](CO)C(=O)N1CCC[C@H]1C(N)=O)[C@@H](C)O)[C@@H](C)O)[C@@H](C)O
For the molecule B3, the IC50 turned out to be 0.832 nM.

Turning to {C20 diacid}-EASELSTAALGRLSAELHELATLPRTETGSGSP-NH2 [[N-terminal(C20 diacid), 30S, 31G]mimylin], the IC50 was 0.24 nM.

B4: [N-terminal(C18 diacid), 5I, 9I]mimylin (peptide)
peptide: {C18 diacid}-EASEISTAILGRLSAELHELATLPRTETGPESP-NH2
SMILES: CC[C@H](C)[C@H](NC(=O)[C@H](C)NC(=O)[C@@H](NC(=O)[C@H](CO)NC(=O)[C@@H](NC(=O)[C@H](CCC(=O)O)NC(=O)[C@H](CO)NC(=O)[C@H](C)NC(=O)[C@H](CCC(=O)O)NC(=O)CCCCCCCCCCCCCCCCC(=O)O)[C@@H](C)CC)[C@@H](C)O)C(=O)N[C@@H](CC(C)C)C(=O)NCC(=O)N[C@@H](CCCNC(=N)N)C(=O)N[C@@H](CC(C)C)C(=O)N[C@@H](CO)C(=O)N[C@@H](C)C(=O)N[C@@H](CCC(=O)O)C(=O)N[C@@H](CC(C)C)C(=O)N[C@@H](Cc1c[nH]cn1)C(=O)N[C@@H](CCC(=O)O)C(=O)N[C@@H](CC(C)C)C(=O)N[C@@H](C)C(=O)N[C@H](C(=O)N[C@@H](CC(C)C)C(=O)N1CCC[C@H]1C(=O)N[C@@H](CCCNC(=N)N)C(=O)N[C@H](C(=O)N[C@@H](CCC(=O)O)C(=O)N[C@H](C(=O)NCC(=O)N1CCC[C@H]1C(=O)N[C@@H](CCC(=O)O)C(=O)N[C@@H](CO)C(=O)N1CCC[C@H]1C(N)=O)[C@@H](C)O)[C@@H](C)O)[C@@H](C)O
Regarding B4, the IC50 is 0.4 nM.

B5: [N-terminal(C18 diacid), 32H]mimylin (peptide)
peptide: {C18 diacid}-EASELSTAALGRLSAELHELATLPRTETGPEHP-NH2
SMILES: CC(C)C[C@H](NC(=O)[C@H](C)NC(=O)[C@H](C)NC(=O)[C@@H](NC(=O)[C@H](CO)NC(=O)[C@H](CC(C)C)NC(=O)[C@H](CCC(=O)O)NC(=O)[C@H](CO)NC(=O)[C@H](C)NC(=O)[C@H](CCC(=O)O)NC(=O)CCCCCCCCCCCCCCCCC(=O)O)[C@@H](C)O)C(=O)NCC(=O)N[C@@H](CCCNC(=N)N)C(=O)N[C@@H](CC(C)C)C(=O)N[C@@H](CO)C(=O)N[C@@H](C)C(=O)N[C@@H](CCC(=O)O)C(=O)N[C@@H](CC(C)C)C(=O)N[C@@H](Cc1c[nH]cn1)C(=O)N[C@@H](CCC(=O)O)C(=O)N[C@@H](CC(C)C)C(=O)N[C@@H](C)C(=O)N[C@H](C(=O)N[C@@H](CC(C)C)C(=O)N1CCC[C@H]1C(=O)N[C@@H](CCCNC(=N)N)C(=O)N[C@H](C(=O)N[C@@H](CCC(=O)O)C(=O)N[C@H](C(=O)NCC(=O)N1CCC[C@H]1C(=O)N[C@@H](CCC(=O)O)C(=O)N[C@@H](Cc1c[nH]cn1)C(=O)N1CCC[C@H]1C(N)=O)[C@@H](C)O)[C@@H](C)O)[C@@H](C)O
On to B5, for which the IC50 stood at 1.26 nM.

B6: [N-terminal(C18 diacid), 5V, 9V]mimylin (peptide)
peptide: {C18 diacid}-EASEVSTAVLGRLSAELHELATLPRTETGPESP-NH2
SMILES: CC(C)C[C@H](NC(=O)[C@H](CCC(=O)O)NC(=O)[C@H](Cc1c[nH]cn1)NC(=O)[C@H](CC(C)C)NC(=O)[C@H](CCC(=O)O)NC(=O)[C@H](C)NC(=O)[C@H](CO)NC(=O)[C@H](CC(C)C)NC(=O)[C@H](CCCNC(=N)N)NC(=O)CNC(=O)[C@H](CC(C)C)NC(=O)[C@@H](NC(=O)[C@H](C)NC(=O)[C@@H](NC(=O)[C@H](CO)NC(=O)[C@@H](NC(=O)[C@H](CCC(=O)O)NC(=O)[C@H](CO)NC(=O)[C@H](C)NC(=O)[C@H](CCC(=O)O)NC(=O)CCCCCCCCCCCCCCCCC(=O)O)C(C)C)[C@@H](C)O)C(C)C)C(=O)N[C@@H](C)C(=O)N[C@H](C(=O)N[C@@H](CC(C)C)C(=O)N1CCC[C@H]1C(=O)N[C@@H](CCCNC(=N)N)C(=O)N[C@H](C(=O)N[C@@H](CCC(=O)O)C(=O)N[C@H](C(=O)NCC(=O)N1CCC[C@H]1C(=O)N[C@@H](CCC(=O)O)C(=O)N[C@@H](CO)C(=O)N1CCC[C@H]1C(N)=O)[C@@H](C)O)[C@@H](C)O)[C@@H](C)O
Consider B6, for which the concentration for half-maximal inhibition (IC50) stood at 0.824 nM.

As for {C18 diacid}-EASELSTAALGRLSAELHELATLPRTETGSGSP-NH2 [[N-terminal(C18 diacid), 30S, 31G]mimylin], the IC50 was 0.187 nM.

As for {C14 diacid-γGlu}-ASELSTAALGRLSAELHELATLPRTETGPESP-NH2 [[N-terminal(C14 diacid-gGlu), des1]mimylin], the concentration for half-maximal inhibition (IC50) was 1.14 nM.

B7: [N-terminal(C18 diacid-gGlu), des1, 30S]mimylin (peptide)
peptide: {C18 diacid-γGlu}-ASELSTAALGRLSAELHELATLPRTETGSESP-NH2
SMILES: CC(C)C[C@H](NC(=O)[C@H](C)NC(=O)[C@H](C)NC(=O)[C@@H](NC(=O)[C@H](CO)NC(=O)[C@H](CC(C)C)NC(=O)[C@H](CCC(=O)O)NC(=O)[C@H](CO)NC(=O)[C@H](C)NC(=O)CC[C@H](NC(=O)CCCCCCCCCCCCCCCCC(=O)O)C(=O)O)[C@@H](C)O)C(=O)NCC(=O)N[C@@H](CCCNC(=N)N)C(=O)N[C@@H](CC(C)C)C(=O)N[C@@H](CO)C(=O)N[C@@H](C)C(=O)N[C@@H](CCC(=O)O)C(=O)N[C@@H](CC(C)C)C(=O)N[C@@H](Cc1c[nH]cn1)C(=O)N[C@@H](CCC(=O)O)C(=O)N[C@@H](CC(C)C)C(=O)N[C@@H](C)C(=O)N[C@H](C(=O)N[C@@H](CC(C)C)C(=O)N1CCC[C@H]1C(=O)N[C@@H](CCCNC(=N)N)C(=O)N[C@H](C(=O)N[C@@H](CCC(=O)O)C(=O)N[C@H](C(=O)NCC(=O)N[C@@H](CO)C(=O)N[C@@H](CCC(=O)O)C(=O)N[C@@H](CO)C(=O)N1CCC[C@H]1C(N)=O)[C@@H](C)O)[C@@H](C)O)[C@@H](C)O
With B7, the IC50 was 0.83 nM.
